The text below walks through data of PMC10815899.

pKd: −log10 of the molar value.

Test [1] addresses GAPDH present on the surface of N. glabratus cells (N. glabratus (endogenous in CBS138 / ATCC 2001)). In words: SEC; Superdex 200 HR 10/50, calibrated with molecular mass standards, 0.5 mL/min; buffer 20 mM Tris-HCl pH 6.7 (methods) or 50 mM NaH2PO4, 150 mM NaCl pH 7.0. On the technique in general: SEC sorts molecules by how far they enter the pores of the column.
Test [2] concerns the target cytoplasmic Nakaseomyces glabratus glyceraldehyde 3-phosphate dehydrogenase (N. glabratus (endogenous in CBS138 / ATCC 2001)). The test is described as above.
In test [3] the target is epithelial adhesin 6 of N. glabratus (N. glabratus (endogenous)) (UniProt Q6FX55). In words: BLI; Octet N1; Epa6 immobilised on an AR2G biosensor; NgGAPDH 100–1000 nM; Langmuir 1:1 model. (Biolayer interferometry detects binding as a change in optical thickness at a sensor tip.)
The target of test [4] is vitronectin (Homo sapiens) (UniProt P04004). Particulars: cited from earlier work.
Test [5] addresses cytoplasmic Nakaseomyces glabratus glyceraldehyde 3-phosphate dehydrogenase (N. glabratus (endogenous in CBS138 / ATCC 2001)). Briefly: BLI; Octet N1; GAPDH amine-coupled on an AR2G biosensor; VTR or HPG 31–500 nM in solution; Langmuir 1:1 model.
The target in test [6] is recombinant Candida albicans glyceraldehyde 3-phosphate dehydrogenase (C. albicans) (UniProt Q5ADM7). The test is described as above.
For test [7], the target named is GAPDH on the surface of C. albicans cells (C. albicans (endogenous in ATCC 10231)) (UniProt Q5ADM7). In words: whole-cell binding assay with antibody blocking (SA-HRP/TMB); C. albicans hyphae in MaxiSorp wells (10^6 cells per well) or N. glabratus cells in tubes (3 × 10^7 per tube), pre-incubated with polyclonal anti-ScGAPDH antibody (1 µg/mL), then 150 nM biotin-labeled VTR or HPG, 1 h at 37 °C.

Test [8] deals with GAPDH present on the surface of N. glabratus cells (N. glabratus (endogenous in CBS138 / ATCC 2001)). The test is described as above.
Test [9] has as its target cytoplasmic Nakaseomyces glabratus glyceraldehyde 3-phosphate dehydrogenase (N. glabratus (endogenous in CBS138 / ATCC 2001)). In words: SPR; Biacore 3000; GAPDH amine-coupled on a CM5 chip; VTR 10–500 nM, 30 µL/min, 25 °C, HBS buffer (10 mM HEPES, 150 mM NaCl, 0.005% P20, pH 7.4); Langmuir 1:1 model with baseline drift.
Test [10] has as its target recombinant Candida albicans glyceraldehyde 3-phosphate dehydrogenase (C. albicans) (UniProt Q5ADM7). The description is as above.

Chain of vitronectin (Homo sapiens) (P04004 399-478): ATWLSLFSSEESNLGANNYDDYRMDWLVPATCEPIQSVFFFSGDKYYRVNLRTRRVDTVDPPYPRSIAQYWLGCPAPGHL

As a reminder, the stoichiometry N is the number of molecules, sites or subunits per partner or assembly. The substance “GAPDH present on the surface of N. glabratus cells (enzyme)” displayed a stoichiometry N in test [1] of 4.
The pKd is −log10 of the Kd, conventionally taken in molar units. Take “cytoplasmic Nakaseomyces glabratus glyceraldehyde 3-phosphate dehydrogenase (enzyme)”: the stoichiometry N in test [2] came out at 4. Besides, in [3], the negative-log Kd (pKd) was 7.85 to 8.15.
Regarding enolase (from UniProt P30575), in [4], the pKd is 7.40.
One may read the koff as the rate constant with which the complex falls apart. For orientation: kon means the second-order rate constant of association. In test [5], human plasminogen (natural protein) gave a pKd of 8.06, a koff of 0.000649 s⁻¹ and a kon of 74600 M⁻¹ s⁻¹. Further, in test [6], the negative-log Kd (pKd) is 6.82, the off-rate constant (koff) stood at 0.00496 s⁻¹ and the kon worked out at 33000 M⁻¹ s⁻¹. In addition, in [7], the percent decrease of binding to cells with anti-ScGAPDH antibody came out at 19%. The same substance had a percent decrease of binding to cells with anti-ScGAPDH antibody in test [8] of 36%.
As for human vitronectin (natural protein), the negative logarithm of the Kd (pKd) in [5] is 7.47; in test [6], 7.69; in test [9], 7.32; in [10] it was 7.35. The koff came to 0.00172 s⁻¹ in [5], 0.000799 s⁻¹ in test [6], 0.00183 s⁻¹ in test [9] and 0.000619 s⁻¹ in test [10]. The association rate constant (kon) in [5] came to 50700 M⁻¹ s⁻¹; in test [6], 38900 M⁻¹ s⁻¹; in test [9] it was 38100 M⁻¹ s⁻¹; in test [10], 14000 M⁻¹ s⁻¹. The percent decrease of binding to cells with anti-ScGAPDH antibody is 16% in [7] and 12% in test [8].
